Measured values reported in US20090263370A1, “METHODS FOR TREATING TACHYKININ-MEDIATED DISEASES WITH CHOLINESTERASE” (priority 2006, published 2009).
Where “and” joins values, the source holds several entries; their conditions need not be identical. Identical values can stand only once.

Experiments:
patient with tinea pedis = test: Prevention and treatment of tinea pedis; format: in vivo
Experimental: To 2 L of warm water lower than 40° C. was added 2 mL of acetylcholinesterase aqueous solution (enzyme activity 300 U), and stirred slowly. The feet of a patient were immersed in the solution for 30 minutes, two times per day for three consecutive days.

[1] = tested on: patient who caught a cold at early stage; test: Prevention and treatment of common cold; format: in vivo; details: 200 U glycerol solution nasal spray
Excerpt: Acetylcholinesterase (enzyme activity 200 U) glycerol solution was sprayed to the nose of a patient who caught a cold at early stage, 3-5 times per day, one spray each time. Within an hour, symptoms such as headache and fever disappeared. Three days later, other symptoms disappeared, and overall wellbeing of the patient recovered to normal.

[2] = tested on: patients with swelling gingivitis and pain; test: Prevention and treatment of gingivitis; format: in vivo; details: 300 U
Experimental: Patients suffered from swelling gingivitis and pain. Sterile cotton swab was wetted by acetylcholinesterase (enzyme activity 300 U) and placed on the affected area for 10 min, one or two times per day.

[3] = tested on: patients with wound caused by trauma, burn or scald; test: Prevention and treatment of trauma and inflammation; format: in vivo; details: enzyme activity 300 U, sprayed 1-3 times directly onto wound
Excerpt: Acetylcholinesterase (enzyme activity 300 U) was sprayed 1-3 times directly onto a wound. If necessary, gauze pretreated with acetylcholinesterase may also cover the wound. […] Pains disappeared. If the wound was not already inflamed, inflammation was not observed, the wound recovered naturally, and a week later dead skin started to fall off. If the wound was inflamed, the inflammation would not develop; three days later, the wound recovered naturally. The mentioned-above wound was a wound caused by trauma, burn or scald.

Substance P (SP) = test: Hydrolysis of Substance P (SP) by cholinesterase, flight mass spectrometry; format: biochemical; details: for first restriction site: SP C-terminal
Experimental: Hydrolysis of SP was performed by acetylcholinesterase and butyrylcholinesterase separately.
1) Butyrylcholinesterase, specific activity 200 U, 50 mg of dry powder was dissolved in 5 mL of aqueous solution of iron(III) (double distilled water, Fe^+3 content, 1 mg/L) and centrifuged at 10,000 r/min for 4 minutes;
2) Butyrylcholinesterase, specific activity 200 U, 50 mg of dry powder was dissolved in 5 mL of double distilled water and centrifuged at 10,000 r/min for 4 minutes;
3) Acetylcholinesterase, specific activity 300 U, 20 mg of dry powder was dissolved in 1 mL of double distilled water and centrifuged at 10,000 r/min for 4 minutes.
SP, with purity 98%, in an aqueous solution at a concentration 0.5 μg/mL.
3. Reaction 100 μL of the substrate and 100 μL of enzyme were mixed, and the initial reaction temperature was 22° C.
Flight mass spectrometry: 1 μL of matrix (CHCA) and 1 μL of the reactant were mixed, and the mixture was directly assayed by flight mass spectrometry.

[4] = tested on: patients with allergic rhinitis; test: Prevention and treatment of allergic rhinitis; format: in vivo; details: 300 U glycerol solution nasal spray, 3-5 times per day for a week; a month later, in most patients
Excerpt: Acetylcholinesterase (enzyme activity 300 U) glycerol solution was sprayed to the nose of a patient, 3-5 times per day, one spray each time. The course of treatment lasted a week.

Kunming mice = test: Analgesic experiment on mice by acetic acid twisting method; format: in vivo; details: for Inhibition rate (%): compared with saline solution group; for Writhing number: within 15 minutes after 0.6% acetic acid i.p.
Excerpt: (§1) 1. Materials and Reagents
1) Reagents: acetic acid, manufactured by Guangdong Xinning Chemical Plant; butyrylcholinesterase (activity: 200 U per mL solution) prepared following the method of Example 2; Fenbid liniment (ibuprofen), produced by GlaxoSmithKline (China) Investment Co, Ltd., Product batch number: 04050471.
2) Animals: Kunming mice, 40, weight 20±2 g, of either sex.
Saline solution group (negative control group);
Experimental group 1, smeared with butyrylcholinesterase aqueous solution;
Experimental group 2, intraperitoneal injection with butyrylcholinesterase aqueous solution; and
Fenbid group (positive control group).
40 Kunming mice were randomly grouped with each group 10. The negative control group was administered 0.9% saline solution (0.1 mL/10 g) by intraperitoneal injection. An area of 1×1 cm of the hair of the mice of the experimental group 1 was cut in the back, and butyrylcholinesterase (enzyme activity: 200 U per mL solution) was smeared onto it. The experimental group 2 was administered 0.1 mL/10 g butyrylcholinesterase solution (enzyme activity: 200 U per mL solution) by intraperitoneal injection. An area of 1×1 cm of the hair of the mice of the positive control group was cut in the back, and Fenbid was smeared onto it. Each group of mice was fed in different cages. At 5 minutes after administration, following the method taught in Pharmacological Experimental Methodology (3rd Edition) (Xu Shuyun, et al., People's Health Publishing House, 2002, 1), each mouse was administered 0.6% acetic acid ([…]) by intraperitoneal injection, and the writhing number of mice within 15 minutes was recorded. The number was compared with that of saline solution group (0.9%) to calculate writhing inhibition rate in mice.

[5] = tested on: patients with summer diarrhea; test: Prevention and treatment of summer diarrhea; format: in vivo; details: 0.5 mL of 200 U aqueous solution in 3 mL cold water, rinsed in mouth and swallowed, repeated after two hours
Experimental: To 0.5 mL of butyrylcholinesterase (enzyme activity 200 U) aqueous solution, 3 mL of cold water was added. A portion of the solution was placed into the mouth of a patient, and lightly rinsed for 5-10 minutes. Then, the solution was swallowed. Two hours later, the previous steps were repeated.

Wister rats = test: Anti-inflammatory experiment with adjuvant arthritis rats; format: in vivo
Excerpt: as §1
1) Reagents: butyrylcholinesterase aqueous solution (activity: 300 U per mL solution) prepared following the method of Example 2; Fenbid liniment (ibuprofen), manufactured by GlaxoSmithKline (China) Investment Co, Ltd., Product batch number: 04050471.
2) Animals: Wister rats, 30, weight 200±2 g, of either sex, from Laboratory Animal Center, Sun Yat-sen University.
Wister rats were randomly grouped into 3 groups with each group of 10. Following the method taught in Pharmacological Experimental Methodology (The third edition) (Xu Shuyun, et al., People's Health Publishing House, 2002, 1), each rat was administered 0.1 mL of Freund's adjuvant (FCA) in the right hindlimb by intradermal injection. After 0.5 h, the experimental group and Fenbid group were separately administered butylcholineterase aqueous solution and Fenbid in the inflammatory site of the right hindlimb, one time per day for a week. At 2 h, 6 h, 12 h, 24 h, 48 h, 72 h and 7 d after administration, the swelling degree of the right hindlimb of rats was separately measured by a vernier caliper.

[6] = intraperitoneal injection 0.1 mL/10 g, 200 U per mL

B1: Acetylcholinesterase (protein, UniProt P22303 32-614, looked up)
Acetylcholinesterase: EGREDAELLVTVRGGRLRGIRLKTPGGPVSAFLGIPFAEPPMGPRRFLPPEPKQPWSGVVDATTFQSVCYQYVDTLYPGFEGTEMWNPNRELSEDCLYLNVWTPYPRPTSPTPVLVWIYGGGFYSGASSLDVYDGRFLVQAERTVLVSMNYRVGAFGFLALPGSREAPGNVGLLDQRLALQWVQENVAAFGGDPTSVTLFGESAGAASVGMHLLSPPSRGLFHRAVLQSGAPNGPWATVGMGEARRRATQLAHLVGCPPGGTGGNDTELVACLRTRPAQVLVNHEWHVLPQESVFRFSFVPVVDGDFLSDTPEALINAGDFHGLQVLVGVVKDEGSYFLVYGAPGFSKDNESLISRAEFLAGVRVGVPQVSDLAAEAVVLHYTDWLHPEDPARLREALSDVVGDHNVVCPVAQLAGRLAAQGARVYAYVFEHRASTLSWPLWMGVPHGYEIEFIFGIPLDPSRNYTAEEKIFAQRLMRYWANFARTGDPNEPRDPKAPQWPPYTAGAQQYVSLDLRPLEVRRGLRAQACAFWNRFLPKLLSATDTLDEAERQWKAEFHRWSSYMVHWKNQFDHYSKQDRCSDL
pain (patient with tinea pedis; 2 mL of 300 U solution in 2 L warm water, feet immersed 30 minutes, two times per day, three days): disappeared | ringworm spot, smell and other symptoms (patient with tinea pedis; one week later): all gone | symptoms such as headache and fever ([1]; 3-5 times per day, within an hour): disappeared | other symptoms ([1]; three days later): disappeared | relapse and side effects ([2]; cotton swab on affected area): without relapse and side effects | inflammatory swelling ([2]; cotton swab on affected area 10 min, one or two times per day, two days later): disappeared | pains [3]: disappeared | wound and inflammation in patients [3]: reduced significantly | capacity of hydrolyzing SP (Substance P (SP)): has the capacity of hydrolyzing SP | first restriction site (Substance P (SP)): between Leu^10 and Met^11 | hydrolysis of C-terminal Met^11 of SP (Substance P (SP); in water, 0-30 minutes, FIGS. 10-15): hydrolyzed quickly | SP fragment finally left (Substance P (SP); in water, FIGS. 10-15): only a 1-5 peptide fragment was left | symptoms such as nasal obstruction, sneezing, runny nose, nose itching [4]: disappeared, without relapse

B2: Butyrylcholinesterase (protein, UniProt P06276 29-602, looked up)
Cholinesterase: EDDIIIATKNGKVRGMNLTVFGGTVTAFLGIPYAQPPLGRLRFKKPQSLTKWSDIWNATKYANSCCQNIDQSFPGFHGSEMWNPNTDLSEDCLYLNVWIPAPKPKNATVLIWIYGGGFQTGTSSLHVYDGKFLARVERVIVVSMNYRVGALGFLALPGNPEAPGNMGLFDQQLALQWVQKNIAAFGGNPKSVTLFGESAGAASVSLHLLSPGSHSLFTRAILQSGSFNAPWAVTSLYEARNRTLNLAKLTGCSRENETEIIKCLRNKDPQEILLNEAFVVPYGTPLSVNFGPTVDGDFLTDMPDILLELGQFKKTQILVGVNKDEGTAFLVYGAPGFSKDNNSIITRKEFQEGLKIFFPGVSEFGKESILFHYTDWVDDQRPENYREALGDVVGDYNFICPALEFTKKFSEWGNNAFFYYFEHRSSKLPWPEWMGVMHGYEIEFVFGLPLERRDNYTKAEEILSRSIVKRWANFAKYGNPNETQNNSTSWPVFKSTEQKYLTLNTESTRIMTKLRAQQCRFWTSFFPKVLEMTGNIDEAEWEWKAGFHRWNNYMMDWKNQFNDYTSKKESCVGL
writhing number compared with the saline solution group (Kunming mice; either by intraperitoneal injection or by skin smearing, P<0.05): significantly decreased the writhing number | Inhibition rate (%) (Kunming mice; [6]): 26.6% | Writhing number (Kunming mice; [6]): 27.2 ± 9.50*Δ | inhibition rate on writhing compared with Fenbid (Kunming mice; intraperitoneal injection, P<0.05): higher inhibition rate on writhing in mice than Fenbid | Writhing number (Kunming mice; smeared onto 1×1 cm cut area of the back): 29.9 ± 5.17 | Inhibition rate (%) (Kunming mice; smeared onto the back, 200 U per mL): 24.0% | number of the patients with summer diarrhea [5]: decreased greatly | capacity of hydrolyzing SP (Substance P (SP)): has the capacity of hydrolyzing SP | amount of product, with Fe^+3 (FIG. 3) compared with without Fe^+3 (FIG. 8) (Substance P (SP); 60 minutes): much more products having a molecular weight of 1104 | first restriction site (Substance P (SP)): between Leu^10 and Met^11 | molecular weight of products detected (Substance P (SP); in water without Fe^+3, FIGS. 6-9): 1217 and 1104 | molecular weight of product detected (Substance P (SP); with Fe^+3 in water, at 25 minutes): 1217 | molecular weight of new fragments detected (Substance P (SP); with Fe^+3 in water, at 60 minutes): 1104 and 900 | Swelling degree of the right hind limb of rats (Wister rats; 2 h after administration): 0.74 ± 0.04 | Swelling degree of the right hind limb of rats (Wister rats; 6 h after administration): 0.84 ± 0.04 | Swelling degree of the right hind limb of rats (Wister rats; 12 h after administration): 0.87 ± 0.05 | Swelling degree of the right hind limb of rats (Wister rats; 24 h after administration): 0.83 ± 0.05 | Swelling degree of the right hind limb of rats (Wister rats; 48 h after administration): 0.74 ± 0.02 | Swelling degree of the right hind limb of rats (Wister rats; 72 h after administration): 0.76 ± 0.05 | Swelling degree of the right hind limb of rats (Wister rats; 7 d after administration): 0.67 ± 0.06 | swelling degree compared with the negative control group (Wister rats; at 48 h, 72 h and 7 d after administration, P<0.05): significantly decrease the swelling degree
